Measurements: patent US20250145711A1 (Janssen / Centocor, published 2025)

Tests used:
[1] = target: T1, human PSMA on prostate cancer cell lines (22RV1, C4-2B) (human, UniProt Q04609 1-750); experiment: flow cytometry on 22RV1 cells
T1 construct: also called PSMA-expressing cell lines
Description: (§1) 22RV1 and C4-2B cells were plated at 50,000 cells per well in 50 μl of assay medium (RPMI, 10% HI FBS) in V bottom plates. Serial dilutions of antibodies were prepared in assay medium with 50 μl of antibody dilutions added to the plates containing cells. The plates were incubated for 60 min at 37° C. at which time 100 μl of staining buffer (Becton Dickinson Cat #554657) was added to all wells of each plate. The plates were centrifuged at 300×G for 5 minutes and the medium was removed from the wells. 200 μl of staining buffer was added to all wells of each plate. The plates were centrifuged at 300× G for 5 minutes and the medium was removed from the wells. 50 μl of 2 μg/ml AlexaFluor647-labeled goat anti-human Fc was added to all wells of the plates and the plates were incubated for 30 minutes at 4° C. 150 μl of staining buffer was added to all wells of each plate. The plates were centrifuged at 300× G for 5 minutes and the medium was removed from the wells.

[2] = target: T1, human PSMA on prostate cancer cell …; experiment: flow cytometry on C4-2B cells
Description: as §1

recombinant human PSMA = target: T2, recombinant human PSMA (human, UniProt Q04609 44-750); experiment: SPR (Biacore 8K), antibody captured on anti-Fc, PSMA in solution
T2 construct: also called hu PSMA; prostate-specific membrane antigen
Description: The binding affinity of anti-PSMA to the recombinant human, cynomolgus or mouse PSMA was determined by surface plasmon resonance (SPR) using a Biacore 8K instrument\. […] The association and dissociation were monitored for 3 and 15 minutes, respectively, using a flow rate of 50 μL/min. Raw binding data was referenced by subtracting the analyte binding signals from blanks and analyzed using a 1:1 Langmuir binding model using the Biacore Insight evaluation software to obtain the kinetics which were used to calculate the binding affinity. The anti-PSMA were captured using an anti-human Fc antibody and the antigens were injected in solution.

T1 sequence (Q04609 whole entry): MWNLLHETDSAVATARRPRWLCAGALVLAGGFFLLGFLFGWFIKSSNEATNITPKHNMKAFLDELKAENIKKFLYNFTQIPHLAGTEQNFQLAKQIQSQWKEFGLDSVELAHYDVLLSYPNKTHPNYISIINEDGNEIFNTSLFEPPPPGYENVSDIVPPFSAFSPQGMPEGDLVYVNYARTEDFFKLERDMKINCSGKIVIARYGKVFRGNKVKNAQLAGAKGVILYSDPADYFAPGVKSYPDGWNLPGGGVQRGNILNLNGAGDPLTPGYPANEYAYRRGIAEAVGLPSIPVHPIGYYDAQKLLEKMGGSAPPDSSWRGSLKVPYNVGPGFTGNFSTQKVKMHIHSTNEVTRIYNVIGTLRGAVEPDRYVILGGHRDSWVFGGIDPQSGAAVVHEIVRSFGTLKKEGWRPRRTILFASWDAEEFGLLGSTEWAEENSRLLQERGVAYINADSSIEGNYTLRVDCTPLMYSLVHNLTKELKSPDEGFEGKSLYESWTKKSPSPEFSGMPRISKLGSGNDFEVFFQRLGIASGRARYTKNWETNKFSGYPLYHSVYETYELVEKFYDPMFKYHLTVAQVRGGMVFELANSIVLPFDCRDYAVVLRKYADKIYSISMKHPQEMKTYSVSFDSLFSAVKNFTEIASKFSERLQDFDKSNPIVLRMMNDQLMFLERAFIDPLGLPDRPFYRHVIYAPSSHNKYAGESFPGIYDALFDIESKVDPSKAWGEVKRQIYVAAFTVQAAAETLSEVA
T2 sequence (Q04609 44-750 limits assumed): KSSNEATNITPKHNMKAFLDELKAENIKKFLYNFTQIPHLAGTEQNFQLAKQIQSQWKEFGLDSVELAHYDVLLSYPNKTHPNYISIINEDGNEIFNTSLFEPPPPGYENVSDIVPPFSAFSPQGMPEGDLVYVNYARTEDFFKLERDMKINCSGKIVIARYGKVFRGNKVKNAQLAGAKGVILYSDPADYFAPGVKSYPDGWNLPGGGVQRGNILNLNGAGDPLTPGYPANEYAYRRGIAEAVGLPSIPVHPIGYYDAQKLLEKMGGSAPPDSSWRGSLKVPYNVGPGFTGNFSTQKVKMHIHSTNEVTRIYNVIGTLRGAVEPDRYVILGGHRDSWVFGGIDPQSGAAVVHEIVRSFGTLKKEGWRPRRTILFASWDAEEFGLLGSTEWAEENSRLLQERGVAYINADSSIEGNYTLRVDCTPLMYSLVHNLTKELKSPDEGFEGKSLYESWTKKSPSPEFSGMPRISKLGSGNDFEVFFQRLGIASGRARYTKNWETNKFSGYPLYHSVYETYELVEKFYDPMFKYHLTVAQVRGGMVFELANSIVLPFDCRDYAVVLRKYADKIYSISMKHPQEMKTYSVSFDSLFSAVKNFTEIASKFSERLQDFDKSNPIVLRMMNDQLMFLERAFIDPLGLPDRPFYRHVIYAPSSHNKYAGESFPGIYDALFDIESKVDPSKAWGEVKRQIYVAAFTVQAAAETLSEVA

| EC50 [1] [nM] | EC50 [2] [nM] | Kd (recombinant human PSMA) [nM] | Binder |
| --- | --- | --- | --- |
| 2.9 | 4.55 | ≤ 0.253 | PS3B926 (bispecific antibody, human IgG1, kappa, lambda, L234A L235A, FAB-A: CD3B2183 (CD3W245); FAB-B: PSMB891) heavy 1: EVQLVESGGGLVKPGGSLRLSCAASGFTFSRYNMNWVRQAPGKGLEWVSSISTSSNYIYYADSVKGRFTFSRDNAKNSLDLQMSGLRAEDTAIYYCTRGWGPFDYWGQGTLVTVSSASTKGPSVFPLAPSSKSTSGGTAALGCLVKDYFPEPVTVSWNSGALTSGVHTFPAVLQSSGLYSLSSVVTVPSSSLGTQTYICNVNHKPSNTKVDKKVEPKSCDKTHTCPPCPAPEAAGGPSVFLFPPKPKDTLMISRTPEVTCVVVSVSHEDPEVKFNWYVDGVEVHNAKTKPREEQYNSTYRVVSVLTVLHQDWLNGKEYKCKVSNKALPAPIEKTISKAKGQPREPQVYTLPPSREEMTKNQVSLTCLVKGFYPSDIAVEWESNGQPENNYKTTPPVLDSDGSFLLYSKLTVDKSRWQQGNVFSCSVMHEALHNHYTQKSLSLSP light 1: DIQMTQSPSSLSASVGDRVTITCRARQSIGTAIHWYQQKPGKAPKLLIKYASESISGVPSRFSGSGSGTDFTLTISSLQPEDFATYYCQQSGSWPYTFGQGTKLEIKRTVAAPSVFIFPPSDEQLKSGTASVVCLLNNFYPREAKVQWKVDNALQSGNSQESVTEQDSKDSTYSLSSTLTLSKADYEKHKVYACEVTHQGLSSPVTKSFNRGEC heavy 2: not shown light 2: not shown |
| 60 | 60 | 2.37 | PS3B928 (bispecific antibody, human IgG1, kappa, lambda, L234A L235A, FAB-A: CD3B2183 (CD3W245); FAB-B: PSMB892) heavy 1: EVQLVESGGGLVKPGGSLRLSCAASGFTFSRYNMNWVRQAPGKGLEWVSSISTSSNYIYYADSVKGRFTFSRDNAKNSLDLQMSGLRAEDTAIYYCTRGWGPFDYWGQGTLVTVSSASTKGPSVFPLAPSSKSTSGGTAALGCLVKDYFPEPVTVSWNSGALTSGVHTFPAVLQSSGLYSLSSVVTVPSSSLGTQTYICNVNHKPSNTKVDKKVEPKSCDKTHTCPPCPAPEAAGGPSVFLFPPKPKDTLMISRTPEVTCVVVSVSHEDPEVKFNWYVDGVEVHNAKTKPREEQYNSTYRVVSVLTVLHQDWLNGKEYKCKVSNKALPAPIEKTISKAKGQPREPQVYTLPPSREEMTKNQVSLTCLVKGFYPSDIAVEWESNGQPENNYKTTPPVLDSDGSFLLYSKLTVDKSRWQQGNVFSCSVMHEALHNHYTQKSLSLSP light 1: DIQMTQSPSSLSASVGDRVTITCRARQSIGTAIHWYQQKPGKAPKLLIKYASESISGVPSRFSGSGSGTDFTLTISSLQPEDFATYYCQQSGSWPYTFGQGTKLEIKRTVAAPSVFIFPPSDEQLKSGTASVVCLLNNFYPREAKVQWKVDNALQSGNSQESVTEQDSKDSTYSLSSTLTLSKADYEKHKVYACEVTHQGLSSPVTKSFNRGEC heavy 2: not shown light 2: not shown |
| 60 | 60 | 1.35 | PS3B920 (bispecific antibody, human IgG1, lambda, L234A L235A, FAB-A: CD3B891 (CD3B376 - K477); FAB-B: PSMB897) heavy 1: QVQLQQSGPRLVRPSQTLSLTCAISGDSVFNNNAAWSWIRQSPSRGLEWLGRTYYRSKWLYDYAVSVKSRITVNPDTSRNQFTLQLNSVTPEDTALYYCARGYSSSFDYWGQGTLVTVSSASTKGPSVFPLAPSSKSTSGGTAALGCLVKDYFPEPVTVSWNSGALTSGVHTFPAVLQSSGLYSLSSVVTVPSSSLGTQTYICNVNHKPSNTKVDKKVEPKSCDKTHTCPPCPAPEAAGGPSVFLFPPKPKDTLMISRTPEVTCVVVSVSHEDPEVKFNWYVDGVEVHNAKTKPREEQYNSTYRVVSVLTVLHQDWLNGKEYKCKVSNKALPAPIEKTISKAKGQPREPQVYTLPPSREEMTKNQVSLTCLVKGFYPSDIAVEWESNGQPENNYKTTPPVLDSDGSFLLYSKLTVDKSRWQQGNVFSCSVMHEALHNHYTQKSLSLSPG light 1: QSALTQPASVSGSPGQSITISCTGTSSNIGTYKFVSWYQQHPDKAPKVLLYEVSKRPSGVSSRFSGSKSGNTASLTISGLQAEDQADYHCVSYAGSGTLLFGGGTKLTVLGQPKAAPSVTLFPPSSEELQANKATLVCLISDFYPGAVTVAWKADSSPVKAGVETTTPSKQSNNKYAASSYLSLTPEQWKSHRSYSCQVTHEGSTVEKTVAPTECS heavy 2: EVQLVESGGGLVQPGGSLRLSCAASGFTFSSYAMSWVRQAPGKGLEWVSAISGGSGSTYYADSVKGRFTISRDNSKNTLYLQMNSLRAEDSAVYYCAKDGVGATPYYFDYWGQGTLVTVSSASTKGPSVFPLAPSSKSTSGGTAALGCLVKDYFPEPVTVSWNSGALTSGVHTFPAVLQSSGLYSLSSVVTVPSSSLGTQTYICNVNHKPSNTKVDKKVEPKSCDKTHTCPPCPAPEAAGGPSVFLFPPKPKDTLMISRTPEVTCVVVSVSHEDPEVKFNWYVDGVEVHNAKTKPREEQYNSTYRVVSVLTVLHQDWLNGKEYKCKVSNKALPAPIEKTISKAKGQPREPQVYTLPPSREEMTKNQVSLTCLVKGFYPSDIAVEWESNGQPENNYKTTPPVLDSDGSFFLYSRLTVDKSRWQQGNVFSCSVMHEALHNHYTQKSLSLSPG light 2: QSVLTQPPSVSAAPGQKVTISCSGSSSNIGNNYVSWYQQLPGTAPKLLIYDNNKRPSGIPDRFSGSKSGTSATLGITGLQTGDEADYYCGTWDSSLSAYVFGTGTKVTVLGQPKAAPSVTLFPPSSEELQANKATLVCLISDFYPGAVTVAWKADSSPVKAGVETTTPSKQSNNKYAASSYLSLTPEQWKSHRSYSCQVTHEGSTVEKTVAPTECS |
| 4.03 | 6.44 | ≤ 0.0864 | PS3B921 (bispecific antibody, human IgG1, lambda, L234A L235A, FAB-A: CD3B891 (CD3B376 - K477); FAB-B: PSMB896) heavy 1: QVQLQQSGPRLVRPSQTLSLTCAISGDSVFNNNAAWSWIRQSPSRGLEWLGRTYYRSKWLYDYAVSVKSRITVNPDTSRNQFTLQLNSVTPEDTALYYCARGYSSSFDYWGQGTLVTVSSASTKGPSVFPLAPSSKSTSGGTAALGCLVKDYFPEPVTVSWNSGALTSGVHTFPAVLQSSGLYSLSSVVTVPSSSLGTQTYICNVNHKPSNTKVDKKVEPKSCDKTHTCPPCPAPEAAGGPSVFLFPPKPKDTLMISRTPEVTCVVVSVSHEDPEVKFNWYVDGVEVHNAKTKPREEQYNSTYRVVSVLTVLHQDWLNGKEYKCKVSNKALPAPIEKTISKAKGQPREPQVYTLPPSREEMTKNQVSLTCLVKGFYPSDIAVEWESNGQPENNYKTTPPVLDSDGSFLLYSKLTVDKSRWQQGNVFSCSVMHEALHNHYTQKSLSLSPG light 1: QSALTQPASVSGSPGQSITISCTGTSSNIGTYKFVSWYQQHPDKAPKVLLYEVSKRPSGVSSRFSGSKSGNTASLTISGLQAEDQADYHCVSYAGSGTLLFGGGTKLTVLGQPKAAPSVTLFPPSSEELQANKATLVCLISDFYPGAVTVAWKADSSPVKAGVETTTPSKQSNNKYAASSYLSLTPEQWKSHRSYSCQVTHEGSTVEKTVAPTECS heavy 2: EVQLVESGGGLVQPGGSLRLSCAASGFTFSSYAMSWVRQAPGKGLEWVSAISGGIGSTYYADSVKGRFTISRDNSKNTLWLQMNSLRAEDTAVYYCAKDGVGATPYYFDYWGQGTLVTVSSASTKGPSVFPLAPSSKSTSGGTAALGCLVKDYFPEPVTVSWNSGALTSGVHTFPAVLQSSGLYSLSSVVTVPSSSLGTQTYICNVNHKPSNTKVDKKVEPKSCDKTHTCPPCPAPEAAGGPSVFLFPPKPKDTLMISRTPEVTCVVVSVSHEDPEVKFNWYVDGVEVHNAKTKPREEQYNSTYRVVSVLTVLHQDWLNGKEYKCKVSNKALPAPIEKTISKAKGQPREPQVYTLPPSREEMTKNQVSLTCLVKGFYPSDIAVEWESNGQPENNYKTTPPVLDSDGSFFLYSRLTVDKSRWQQGNVFSCSVMHEALHNHYTQKSLSLSPG light 2: QSVLTQPPSVSAAPGQKVTISCSGSSSNIGINYVSWYQQLPGTAPKLLIYDNNKRPSGIPDRFSGSKSGTSATLGITGLQTGDEADYYCGTWDSSLSAVVFGGGTKLTVLGQPKAAPSVTLFPPSSEELQANKATLVCLISDFYPGAVTVAWKADSSPVKAGVETTTPSKQSNNKYAASSYLSLTPEQWKSHRSYSCQVTHEGSTVEKTVAPTECS |
| 34.7 | 44.1 | 0.41 | PS3B922 (bispecific antibody, human IgG1, lambda, L234A L235A, FAB-A: CD3B891 (CD3B376 - K477); FAB-B: PSMB898) heavy 1: QVQLQQSGPRLVRPSQTLSLTCAISGDSVFNNNAAWSWIRQSPSRGLEWLGRTYYRSKWLYDYAVSVKSRITVNPDTSRNQFTLQLNSVTPEDTALYYCARGYSSSFDYWGQGTLVTVSSASTKGPSVFPLAPSSKSTSGGTAALGCLVKDYFPEPVTVSWNSGALTSGVHTFPAVLQSSGLYSLSSVVTVPSSSLGTQTYICNVNHKPSNTKVDKKVEPKSCDKTHTCPPCPAPEAAGGPSVFLFPPKPKDTLMISRTPEVTCVVVSVSHEDPEVKFNWYVDGVEVHNAKTKPREEQYNSTYRVVSVLTVLHQDWLNGKEYKCKVSNKALPAPIEKTISKAKGQPREPQVYTLPPSREEMTKNQVSLTCLVKGFYPSDIAVEWESNGQPENNYKTTPPVLDSDGSFLLYSKLTVDKSRWQQGNVFSCSVMHEALHNHYTQKSLSLSPG light 1: QSALTQPASVSGSPGQSITISCTGTSSNIGTYKFVSWYQQHPDKAPKVLLYEVSKRPSGVSSRFSGSKSGNTASLTISGLQAEDQADYHCVSYAGSGTLLFGGGTKLTVLGQPKAAPSVTLFPPSSEELQANKATLVCLISDFYPGAVTVAWKADSSPVKAGVETTTPSKQSNNKYAASSYLSLTPEQWKSHRSYSCQVTHEGSTVEKTVAPTECS heavy 2: EVQLVESGGGLVQPGGSLRLSCAASGFTFSSYAMSWVRQAPGKGLEWVSAISGGSGSTYYADSVKGRFTISRDNSKNTLYLQMNSLRAEDSAVYYCAKDGVGATPYYFDYWGQGTLVTVSSASTKGPSVFPLAPSSKSTSGGTAALGCLVKDYFPEPVTVSWNSGALTSGVHTFPAVLQSSGLYSLSSVVTVPSSSLGTQTYICNVNHKPSNTKVDKKVEPKSCDKTHTCPPCPAPEAAGGPSVFLFPPKPKDTLMISRTPEVTCVVVSVSHEDPEVKFNWYVDGVEVHNAKTKPREEQYNSTYRVVSVLTVLHQDWLNGKEYKCKVSNKALPAPIEKTISKAKGQPREPQVYTLPPSREEMTKNQVSLTCLVKGFYPSDIAVEWESNGQPENNYKTTPPVLDSDGSFFLYSRLTVDKSRWQQGNVFSCSVMHEALHNHYTQKSLSLSPG light 2: QSVLTQPPSVSAAPGQKVTISCSGSSSNIGINYVSWYQQLPGTAPKLLIYDNNKRPSGIPDRFSGSKSGTSATLGITGLQTGDEADYYCGTWDSSLSAVVFGGGTKLTVLGQPKAAPSVTLFPPSSEELQANKATLVCLISDFYPGAVTVAWKADSSPVKAGVETTTPSKQSNNKYAASSYLSLTPEQWKSHRSYSCQVTHEGSTVEKTVAPTECS |
